Measurements taken from patent US20170015742A1 (published 2017).

B1: AB014-GS10-9E8.4 VK-VH (bispecific antibody, human IgG1, kappa, L234A L235A)
heavy: EVQLVESGGGLVQPGGSLRLSCAASGYTFTNYGMNWVRQAPGKGLEWVGWINTYTGEPTYAADFKRRFTFSLDTSKSTAYLQMNSLRAEDTAVYYCAKYPHYYGSSHWYFDVWGQGTLVTVSSASTKGPSVFPLAPSSKSTSGGTAALGCLVKDYFPEPVTVSWNSGALTSGVHTFPAVLQSSGLYSLSSVVTVPSSSLGTQTYICNVNHKPSNTKVDKKVEPKSCDKTHTCPPCPAPEAAGGPSVFLFPPKPKDTLMISRTPEVTCVVVDVSHEDPEVKFNWYVDGVEVHNAKTKPREEQYNSTYRVVSVLTVLHQDWLNGKEYKCKVSNKALPAPIEKTISKAKGQPREPQVYTLPPSREEMTKNQVSLTCLVKGFYPSDIAVEWESNGQPENNYKTTPPVLDSDGSFFLYSKLTVDKSRWQQGNVFSCSVMHEALHNAYTQKSLSLSPGKGGSGGGGSGGEIVLTQSPGTLSLSPGERATLSCERSSGDIGDSYVSWYQQKPGQAPRLVIYADDQRPSGIPDRFSGSGSGTDFTLTISRLEPEDFAVYYCQSYDINIDIVFGGGTKVEIKGGGGSGGGGSGGGGSEVTLRESGPALVKPTQTLTLTCTFSGFSLSTYGMGVGWIRQPPGKALEWLANIWWDDDKYYNPSLKNRLTISKDTSKNQVVLTMTNMDPVDTATYYCARIESIGTTYSFDYWGQGTMVTVSS
light: not shown
B2: AB014-GS6-9E8.4 VH-VK (bispecific antibody, human IgG1, kappa, L234A L235A)
heavy: EVQLVESGGGLVQPGGSLRLSCAASGYTFTNYGMNWVRQAPGKGLEWVGWINTYTGEPTYAADFKRRFTFSLDTSKSTAYLQMNSLRAEDTAVYYCAKYPHYYGSSHWYFDVWGQGTLVTVSSASTKGPSVFPLAPSSKSTSGGTAALGCLVKDYFPEPVTVSWNSGALTSGVHTFPAVLQSSGLYSLSSVVTVPSSSLGTQTYICNVNHKPSNTKVDKKVEPKSCDKTHTCPPCPAPEAAGGPSVFLFPPKPKDTLMISRTPEVTCVVVDVSHEDPEVKFNWYVDGVEVHNAKTKPREEQYNSTYRVVSVLTVLHQDWLNGKEYKCKVSNKALPAPIEKTISKAKGQPREPQVYTLPPSREEMTKNQVSLTCLVKGFYPSDIAVEWESNGQPENNYKTTPPVLDSDGSFFLYSKLTVDKSRWQQGNVFSCSVMHEALHNAYTQKSLSLSPGKGGSGGGEVTLRESGPALVKPTQTLTLTCTFSGFSLSTYGMGVGWIRQPPGKALEWLANIWWDDDKYYNPSLKNRLTISKDTSKNQVVLTMTNMDPVDTATYYCARIESIGTTYSFDYWGQGTMVTVSSGGGGSGGGGSGGGGSEIVLTQSPGTLSLSPGERATLSCERSSGDIGDSYVSWYQQKPGQAPRLVIYADDQRPSGIPDRFSGSGSGTDFTLTISRLEPEDFAVYYCQSYDINIDIVFGGGTKVEIK
light: not shown
B3: AB014-GS15-9E8.4 VH-VK (bispecific antibody, human IgG1, kappa, L234A L235A)
heavy: EVQLVESGGGLVQPGGSLRLSCAASGYTFTNYGMNWVRQAPGKGLEWVGWINTYTGEPTYAADFKRRFTFSLDTSKSTAYLQMNSLRAEDTAVYYCAKYPHYYGSSHWYFDVWGQGTLVTVSSASTKGPSVFPLAPSSKSTSGGTAALGCLVKDYFPEPVTVSWNSGALTSGVHTFPAVLQSSGLYSLSSVVTVPSSSLGTQTYICNVNHKPSNTKVDKKVEPKSCDKTHTCPPCPAPEAAGGPSVFLFPPKPKDTLMISRTPEVTCVVVDVSHEDPEVKFNWYVDGVEVHNAKTKPREEQYNSTYRVVSVLTVLHQDWLNGKEYKCKVSNKALPAPIEKTISKAKGQPREPQVYTLPPSREEMTKNQVSLTCLVKGFYPSDIAVEWESNGQPENNYKTTPPVLDSDGSFFLYSKLTVDKSRWQQGNVFSCSVMHEALHNAYTQKSLSLSPGKGGSGGGGSGGGGSGGEVTLRESGPALVKPTQTLTLTCTFSGFSLSTYGMGVGWIRQPPGKALEWLANIWWDDDKYYNPSLKNRLTISKDTSKNQVVLTMTNMDPVDTATYYCARIESIGTTYSFDYWGQGTMVTVSSGGGGSGGGGSGGGGSEIVLTQSPGTLSLSPGERATLSCERSSGDIGDSYVSWYQQKPGQAPRLVIYADDQRPSGIPDRFSGSGSGTDFTLTISRLEPEDFAVYYCQSYDINIDIVFGGGTKVEIK
light: not shown
B4: 4G8.2-GS10-9E8.4 (bispecific antibody, human IgG1, kappa, L234A L235A)
heavy: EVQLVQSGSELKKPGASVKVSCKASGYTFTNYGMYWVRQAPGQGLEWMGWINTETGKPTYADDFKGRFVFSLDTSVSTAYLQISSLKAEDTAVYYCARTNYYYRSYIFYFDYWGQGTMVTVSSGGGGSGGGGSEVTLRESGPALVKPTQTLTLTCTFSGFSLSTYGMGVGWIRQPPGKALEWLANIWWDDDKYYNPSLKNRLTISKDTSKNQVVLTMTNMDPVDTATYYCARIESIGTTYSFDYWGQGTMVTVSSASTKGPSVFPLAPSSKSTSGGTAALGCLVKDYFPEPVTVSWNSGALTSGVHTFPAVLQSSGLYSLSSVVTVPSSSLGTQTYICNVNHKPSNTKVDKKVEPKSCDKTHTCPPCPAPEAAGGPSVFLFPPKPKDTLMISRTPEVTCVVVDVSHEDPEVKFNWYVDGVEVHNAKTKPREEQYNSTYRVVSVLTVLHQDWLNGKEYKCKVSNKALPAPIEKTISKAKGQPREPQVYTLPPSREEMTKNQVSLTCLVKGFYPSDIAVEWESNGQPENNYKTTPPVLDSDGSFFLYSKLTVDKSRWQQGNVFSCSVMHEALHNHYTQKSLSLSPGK
light: ATQLTQSPSLSASVGDRVTITCRASESVSTHMHWYQQKPGKQPKLLIYGASNLESGVPSRFSGSGSGTDFTLTISSLQPEDFATYFCQQSWNDPFTFGQGTKLEIKRGGSGGGGSGEFVLTQSPGTLSLSPGERATLSCERSSGDIGDSYVSWYQQKPGQAPRLVIYADDQRPSGIPDRFSGSGSGTDFTLTISRLEPEDFAVYYCQSYDINIDIVFGGGTKVEIKRTVAAPSVFIFPPSDEQLKSGTASVVCLLNNFYPREAKVQWKVDNALQSGNSQESVTEQDSKDSTYSLSSTLTLSKADYEKHKVYACEVTHQGLSSPVTKSFNRGEC
B5: AB014-GS10-9E8.4 VH-VK (bispecific antibody, human IgG1, kappa, L234A L235A)
heavy: EVQLVESGGGLVQPGGSLRLSCAASGYTFTNYGMNWVRQAPGKGLEWVGWINTYTGEPTYAADFKRRFTFSLDTSKSTAYLQMNSLRAEDTAVYYCAKYPHYYGSSHWYFDVWGQGTLVTVSSASTKGPSVFPLAPSSKSTSGGTAALGCLVKDYFPEPVTVSWNSGALTSGVHTFPAVLQSSGLYSLSSVVTVPSSSLGTQTYICNVNHKPSNTKVDKKVEPKSCDKTHTCPPCPAPEAAGGPSVFLFPPKPKDTLMISRTPEVTCVVVDVSHEDPEVKFNWYVDGVEVHNAKTKPREEQYNSTYRVVSVLTVLHQDWLNGKEYKCKVSNKALPAPIEKTISKAKGQPREPQVYTLPPSREEMTKNQVSLTCLVKGFYPSDIAVEWESNGQPENNYKTTPPVLDSDGSFFLYSKLTVDKSRWQQGNVFSCSVMHEALHNAYTQKSLSLSPGKGGSGGGGSGGEVTLRESGPALVKPTQTLTLTCTFSGFSLSTYGMGVGWIRQPPGKALEWLANIWWDDDKYYNPSLKNRLTISKDTSKNQVVLTMTNMDPVDTATYYCARIESIGTTYSFDYWGQGTMVTVSSGGGGSGGGGSGGGGSEIVLTQSPGTLSLSPGERATLSCERSSGDIGDSYVSWYQQKPGQAPRLVIYADDQRPSGIPDRFSGSGSGTDFTLTISRLEPEDFAVYYCQSYDINIDIVFGGGTKVEIK
light: not shown
B6: 9E8.4E-GS-9A8.12 (bispecific antibody, human IgG1, kappa, L234A L235A)
heavy: EVTLRESGPALVKPTQTLTLTCTFSGFSLSTYGMGVGWIRQPPGKALEWLANIWWDDDKYYNPSLKNRLTISKDTSKNQVVLTMTNMDPVDTATYYCARIESIGTTYSFDYWGQGTMVTVSSGGGGSGGGGSEVQLVQSGAEVKKPGASVKVSCKASGYTFTNYGMYWVRQAPGQGLEWMGWINTETGKPIYADDFKGRVTMTTDTSTSTAYMELRSLRSDDTAVYYCARVDYDGSFWFAYWGQGTLVTVSSASTKGPSVFPLAPSSKSTSGGTAALGCLVKDYFPEPVTVSWNSGALTSGVHTFPAVLQSSGLYSLSSVVTVPSSSLGTQTYICNVNHKPSNTKVDKKVEPKSCDKTHTCPPCPAPEAAGGPSVFLFPPKPKDTLMISRTPEVTCVVVDVSHEDPEVKFNWYVDGVEVHNAKTKPREEQYNSTYRVVSVLTVLHQDWLNGKEYKCKVSNKALPAPIEKTISKAKGQPREPQVYTLPPSREEMTKNQVSLTCLVKGFYPSDIAVEWESNGQPENNYKTTPPVLDSDGSFFLYSKLTVDKSRWQQGNVFSCSVMHEALHNAYTQKSLSLSPGK
light: EFVLTQSPGTLSLSPGERATLSCERSSGDIGESYVSWYQQKPGQAPRLVIYADDQRPSGIPDRFSGSGSGTDFTLTISRLEPEDFAVYYCQSYDINIDIVFGGGTKVEIKRGGSGGGGSGDTQLTQSPSSLSASVGDRVTITCRASESVSTVIHWYQQKPGKQPKLLIHGASNLESGVPSRFSGSGSGTDFTLTISSLQPEDFATYFCQQHWNDPPTFGQGTKLEIKRTVAAPSVFIFPPSDEQLKSGTASVVCLLNNFYPREAKVQWKVDNALQSGNSQESVTEQDSKDSTYSLSSTLTLSKADYEKHKVYACEVTHQGLSSPVTKSFNRGEC

What follows are binders tested against recombinant human VEGF165 (human, UniProt P15692 207-395) (assay: cell-based or functional assay).
Sequence of recombinant human VEGF165 (P15692 other isoform, or with tags, fused parts or gaps limits assumed): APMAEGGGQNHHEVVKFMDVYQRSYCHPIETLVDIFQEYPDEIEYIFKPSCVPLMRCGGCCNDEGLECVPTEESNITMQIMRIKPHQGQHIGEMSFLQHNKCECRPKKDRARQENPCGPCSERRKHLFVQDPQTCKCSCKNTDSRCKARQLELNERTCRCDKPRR

Binder	Potency IC50 (nM) HMVEC-d hVEGF165
B1	0.086 nM
B2	0.124 nM
B3	0.13 nM
B4	0.221 nM
B5	0.095 nM

These binders were tested against recombinant human PDGF-BB (human, UniProt P01127 82-190) (assay: cell-based or functional assay).
Sequence of recombinant human PDGF-BB (P01127 82-190 limits assumed): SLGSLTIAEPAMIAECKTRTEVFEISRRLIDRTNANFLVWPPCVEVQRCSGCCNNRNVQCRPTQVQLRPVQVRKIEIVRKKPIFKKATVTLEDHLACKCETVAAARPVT

Binder	Potency IC50 (nM) NIH-3T3 hPDGF-BB
B1	0.074 nM
B2	0.222 nM
B3	0.066 nM
B4	> 5 nM
B6	0.327 nM
B5	0.063 nM
